Results reported in patent publication US20220395553A1 (COHBAR, published 2022).
Ends that are not written are not given here.

The binders below were run against T1, SNAP tagged-CXC4 receptor labeled with terbium (Tag-lite CXCR4 cells, HEK293) (UniProt P61073 1-352, SNAP tag labeled with terbium fluorescent dye) (assay: HTRF competition on Tag-lite CXCR4 HEK293 cells; competitor labelled CXCL12).
T1 construct: whole, on cells; Bought frozen cells (PerkinElmer-CisBio), HEK293 transiently expressing the receptor; also called terbium labeled CXCR receptor
T1 sequence (P61073 whole entry): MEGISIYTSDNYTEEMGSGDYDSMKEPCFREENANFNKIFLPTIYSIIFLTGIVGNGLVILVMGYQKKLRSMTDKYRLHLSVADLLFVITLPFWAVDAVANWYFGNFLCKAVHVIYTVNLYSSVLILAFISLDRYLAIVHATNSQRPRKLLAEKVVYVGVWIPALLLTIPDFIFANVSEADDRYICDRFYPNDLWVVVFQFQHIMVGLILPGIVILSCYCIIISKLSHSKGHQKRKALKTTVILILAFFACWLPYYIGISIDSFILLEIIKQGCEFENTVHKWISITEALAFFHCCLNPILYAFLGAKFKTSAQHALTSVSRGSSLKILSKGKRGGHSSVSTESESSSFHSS
Method: (§1) Peptides were initially prepared as 1 mM stock in H₂O and tested at a final concentration of 400 nM. Following the manufacture's protocol, a frozen aliquot of Tag-lite CXCR4 cells was thawed and immediately seeded onto 384-well plates in TLB. Immediately following the addition of cells, 400 nM peptide (final concentration) in TLB was added to the appropriate well. […] The plates were covered in aluminum foil and left at room temperature for 3 hours. Following the 3 hour incubation period, the plates were removed from the incubator and fluorescence measured using a Cytation 1 plate reader using a HTRF filter cube ([…]; BioTek; Winooski, Vt.).

LERYHHSVRTSLRPYTK [SEQ ID NO: 73] and LERYHHTVRSSLRPYTK [SEQ ID NO: 39] are the same in “Percent Inhibition of CXCR4/CXCL12 Binding (400 nM peptide)” value: 87% for the first, 87% for the second.

First: LRRYHHSVRTSLRPYTK [SEQ ID NO: 70]
Second: LERYHHSVRSTLRPYTK [SEQ ID NO: 74]
The “Percent Inhibition of CXCR4/CXCL12 Binding (400 nM peptide)” value of the first is lower: 11% for the first, 88% for the second.

Going from LRRYHHSVRSSLRGYTK [SEQ ID NO: 79] to LERYHHSVRSSLRPYSK [SEQ ID NO: 75], the “Percent Inhibition of CXCR4/CXCL12 Binding (400 nM peptide)” value rises from 12% to 81%.

The binders below were run against T2, ProLink tagged human CXCR4 (C2C12 CXCR4 β-Arrestin cell line) (human, UniProt P61073 1-352) (assay: cell-based or functional assay).
T2 sequence (P61073 whole entry): as above

LRRYHHSVRSSLRPYTK [SEQ ID NO: 3] was tested, and the “IC50 for Inhibition of CXCR4 (β-Arrestin recruitment)” value was 0.51 nM.

Target: T1, SNAP tagged-CXC4 receptor labeled with …
Assay: HTRF competition on Tag-lite CXCR4 HEK293 cells; competitor labelled CXCL12
Remark: another data set of the same source
Method: as §1, with “H₂O. […]” for “H₂O and tested at a final concentration of 400 nM.”, “TLB.” for “TLB. Immediately following the addition of cells, 400 nM peptide (final concentration) in TLB was added to the appropriate well.”

LERYHHSVRTSLRPYTK [SEQ ID NO: 73] and LERYHHTVRSSLRPYTK [SEQ ID NO: 39] are within 1.5-fold of each other in IC50: 10 nM for the first, 8 nM for the second.

LRRYHHSVRSSLRPYTK [SEQ ID NO: 3] and MLRRYHHSVRSSLRPYTK [SEQ ID NO: 2] are within 1.5-fold of each other in IC50: 497 nM for the first, 375 nM for the second.

First: LRRYHHSVRTSLRPYTK [SEQ ID NO: 70]
Second: LERYHHSVRSTLRPYTK [SEQ ID NO: 74]
The IC50 of the first is 56-fold higher: 336 nM for the first, 6 nM for the second.

Going from LRRYHHSVRSSLRGYTK [SEQ ID NO: 79] to LERYHHSVRSSLRPYSK [SEQ ID NO: 75], the IC50 falls from 670 nM to 11 nM (61-fold).

What follows are binders tested against T3, CXCR4 on cultured U937 and Jurkat cells (human, UniProt P61073 1-352) (assay: cell-based or functional assay).
T3 sequence (P61073 whole entry): as above

Compared with LRRYHHSVRSSLRPYTK [SEQ ID NO: 3], MLRRYHHSVRSSLRPYTK [SEQ ID NO: 2] is lower in “Percent Inhibition of CXCL12 Mediated Migration (U937 cells)” value: 101% for the first, 58% for the second.

Target: T3, CXCR4 on cultured U937 and Jurkat cells
Assay: cell-based or functional assay
Remark: another data set of the same source

First: LERYHHSVRTSLRPYTK [SEQ ID NO: 73]
Second: LERYHHTVRSSLRPYTK [SEQ ID NO: 39]
The “Percent Inhibition of CXCR4/CXCL12 Induced p-MEK (100 nM Test Article)” value of the first is higher: 47% for the first, 38% for the second.

Compared with LRRYHHSVRSSLRPYTK [SEQ ID NO: 3], MLRRYHHSVRSSLRPYTK [SEQ ID NO: 2] is lower in “Percent Inhibition of CXCR4/CXCL12 Induced p-MEK (100 nM Test Article)” value: 29% for the first, -1% for the second.

First: LRRYHHSVRTSLRPYTK [SEQ ID NO: 70]
Second: LERYHHSVRSTLRPYTK [SEQ ID NO: 74]
The “Percent Inhibition of CXCR4/CXCL12 Induced p-MEK (100 nM Test Article)” value of the first is higher: 57% for the first, 48% for the second.

Compared with LRRYHHSVRSSLRGYTK [SEQ ID NO: 79], LERYHHSVRSSLRPYTK-NH2 [SEQ ID NO: 56] is higher in “Percent Inhibition of CXCR4/CXCL12 Induced p-MEK (100 nM Test Article)” value: 46% for the first, 69% for the second.

First: LRRYHHSVRSSLRPYTK-NH2 [SEQ ID NO: 16]
Second: LERYHHSVRSSLRPYSK [SEQ ID NO: 75]
The “Percent Inhibition of CXCR4/CXCL12 Induced p-MEK (100 nM Test Article)” value of the first is higher: 74% for the first, 60% for the second.

Compared with LERYHHSVRTSLRPYTK [SEQ ID NO: 73], LERYHHTVRSSLRPYTK [SEQ ID NO: 39] is lower in “Percent Inhibition of CXCR4/CXCL12 Induced p-MEK (1 µM Test Article)” value: 96% for the first, 95% for the second.

First: LRRYHHSVRSSLRPYTK [SEQ ID NO: 3]
Second: MLRRYHHSVRSSLRPYTK [SEQ ID NO: 2]
The “Percent Inhibition of CXCR4/CXCL12 Induced p-MEK (1 µM Test Article)” value of the first is higher: 91% for the first, 28% for the second.

LRRYHHSVRTSLRPYTK [SEQ ID NO: 70] and LERYHHSVRSTLRPYTK [SEQ ID NO: 74] are the same in “Percent Inhibition of CXCR4/CXCL12 Induced p-MEK (1 µM Test Article)” value: 93% for the first, 93% for the second.

First: LRRYHHSVRSSLRGYTK [SEQ ID NO: 79]
Second: LERYHHSVRSSLRPYTK-NH2 [SEQ ID NO: 56]
The “Percent Inhibition of CXCR4/CXCL12 Induced p-MEK (1 µM Test Article)” value of the first is higher: 100% for the first, 98% for the second.

LRRYHHSVRSSLRPYTK-NH2 [SEQ ID NO: 16] and LERYHHSVRSSLRPYSK [SEQ ID NO: 75] are the same in “Percent Inhibition of CXCR4/CXCL12 Induced p-MEK (1 µM Test Article)” value: 100% for the first, 100% for the second.

Each binder was assayed against ProLink tagged human CXCR4 (C2C12 CXCR4 β-Arrestin cell line) (human, UniProt P61073 1-352) (assay: cell-based or functional assay).
Target sequence in this assay (P61073 whole entry): as above

LERYHHSVRTSLRPYTK [SEQ ID NO: 73] and LERYHHTVRSSLRPYTK [SEQ ID NO: 39] are within 1.5-fold of each other in “IC50 for Inhibition of CXCR4 Activation (β-Arrestin recruitment)” value (from here on “IC50 for Inhibition of CXCR4 Activation”): 4 nM for the first, 3 nM for the second.

First: MLRRYHHSVRSSLRPYTK [SEQ ID NO: 2]
Second: LRRYHHSVRTSLRPYTK [SEQ ID NO: 70]
The “IC50 for Inhibition of CXCR4 Activation” value of the first is 5.5-fold higher: 11 nM for the first, 2 nM for the second.

First: LERYHHSVRSTLRPYTK [SEQ ID NO: 74]
Second: LRRYHHSVRSSLRGYTK [SEQ ID NO: 79]
The “IC50 for Inhibition of CXCR4 Activation” value of the first is 1.7-fold higher: 5 nM for the first, 3 nM for the second.

With LERYHHSVRSSLRPYSK [SEQ ID NO: 75] the “IC50 for Inhibition of CXCR4 Activation” value was 4 nM.

Target: T2, ProLink tagged human CXCR4 (C2C12 CXCR4 …)
Assay: cell-based or functional assay
Remark: another data set of the same source

Going from LRRYHHSVRSSLRPYTK [SEQ ID NO: 3] to LERYHHSVRSSLRPYTK-NH2 [SEQ ID NO: 56], the “IC50 for Inhibition of CXCR4 Activation” value rises from 5 nM to 11 nM (2.2-fold).

In the case of LRRYHHSVRSSLRPYTK-NH2 [SEQ ID NO: 16], the “IC50 for Inhibition of CXCR4 Activation” value is reported as 8 nM.

Target: T3, CXCR4 on cultured U937 and Jurkat cells
Assay: cell-based or functional assay
Remark: another data set of the same source

Compared with LERYHHSVRTSLRPYTK [SEQ ID NO: 73], LERYHHTVRSSLRPYTK [SEQ ID NO: 39] is lower in “Percent Inhibition of CXCL12 Mediated Migration (1.1 µM Test Article; Jurkat cells)” value: 82% for the first, 77% for the second.

Going from LRRYHHSVRSSLRPYTK [SEQ ID NO: 3] to MLRRYHHSVRSSLRPYTK [SEQ ID NO: 2], the “Percent Inhibition of CXCL12 Mediated Migration (1.1 µM Test Article; Jurkat cells)” value falls from 66% to 4%.

First: LRRYHHSVRTSLRPYTK [SEQ ID NO: 70]
Second: LERYHHSVRSTLRPYTK [SEQ ID NO: 74]
The “Percent Inhibition of CXCL12 Mediated Migration (1.1 µM Test Article; Jurkat cells)” value of the first is lower: 21% for the first, 61% for the second.

Compared with LRRYHHSVRSSLRGYTK [SEQ ID NO: 79], LERYHHSVRSSLRPYTK-NH2 [SEQ ID NO: 56] is higher in “Percent Inhibition of CXCL12 Mediated Migration (1.1 µM Test Article; Jurkat cells)” value: 36% for the first, 83% for the second.

Going from LRRYHHSVRSSLRPYTK-NH2 [SEQ ID NO: 16] to LERYHHSVRSSLRPYSK [SEQ ID NO: 75], the “Percent Inhibition of CXCL12 Mediated Migration (1.1 µM Test Article; Jurkat cells)” value rises from 21% to 81%.
